Reference: patent US20140212439A1 (Daiichi Sankyo, published 2014)

Key:
[1] = target: human EPHA2 expressed on cells (human, UniProt P29317 24-976); experiment: cell-based or functional assay
[2] = target: T1, bovine serum albumin (bovine, UniProt P02769 25-607); experiment: ELISA on plate-coated BSA
T1 construct: Control protein in the ELISA; also called BSA
Description: A solution of an EPHA2 extracellular region polypeptide (manufactured by R&D Systems, Inc., #3035-A2-100) or bovine serum albumin (in the description below and the figures, abbreviated to “BSA”) as a control diluted to 1 μg/ml with PBS was dispensed at 100 μl/well onto an immunoplate (manufactured by Nunc, #442404) and incubated overnight at 4° C. to thereby adsorb the protein to the plate.
The plate was incubated at room temperature for 1 hour. Then, the solution in the wells was removed, and the wells were washed twice with Diluting Buffer. Goat anti-Mouse IgG, Peroxidase Conjugated (manufactured by Millipore (Chemicon), #AP181P) diluted 1000 times with Diluting Buffer was added at 100 μl/well and incubated at room temperature for 1 hour. The solution in the wells was removed, and the wells were washed twice with Diluting Buffer. Then, a color reaction was performed with stirring by the addition of OPD Color Developing Solution at 100 μl/well. After color development, the color reaction was terminated by the addition of 1 M HCl at 100 μl/well. The absorbance at 490 nm was measured using a plate reader (FIG. 7).

T1 sequence (P02769 25-607 limits assumed): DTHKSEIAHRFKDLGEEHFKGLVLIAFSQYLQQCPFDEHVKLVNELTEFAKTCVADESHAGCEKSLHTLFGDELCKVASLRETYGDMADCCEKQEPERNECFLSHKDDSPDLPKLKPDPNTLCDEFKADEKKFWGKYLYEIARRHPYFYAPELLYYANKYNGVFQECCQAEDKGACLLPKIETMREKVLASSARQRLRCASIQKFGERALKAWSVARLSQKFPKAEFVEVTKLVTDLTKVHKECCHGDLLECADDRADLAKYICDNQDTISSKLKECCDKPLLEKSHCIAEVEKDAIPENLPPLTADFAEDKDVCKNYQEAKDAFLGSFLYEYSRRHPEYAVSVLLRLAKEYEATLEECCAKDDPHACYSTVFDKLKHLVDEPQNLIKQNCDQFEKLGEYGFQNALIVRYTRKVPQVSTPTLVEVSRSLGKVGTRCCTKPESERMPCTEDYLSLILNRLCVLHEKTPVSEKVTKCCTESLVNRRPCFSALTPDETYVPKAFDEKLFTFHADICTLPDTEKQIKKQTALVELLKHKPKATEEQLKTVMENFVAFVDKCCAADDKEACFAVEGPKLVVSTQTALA
Chain of human EPHA2 expressed on cells (P29317 24-976 limits assumed): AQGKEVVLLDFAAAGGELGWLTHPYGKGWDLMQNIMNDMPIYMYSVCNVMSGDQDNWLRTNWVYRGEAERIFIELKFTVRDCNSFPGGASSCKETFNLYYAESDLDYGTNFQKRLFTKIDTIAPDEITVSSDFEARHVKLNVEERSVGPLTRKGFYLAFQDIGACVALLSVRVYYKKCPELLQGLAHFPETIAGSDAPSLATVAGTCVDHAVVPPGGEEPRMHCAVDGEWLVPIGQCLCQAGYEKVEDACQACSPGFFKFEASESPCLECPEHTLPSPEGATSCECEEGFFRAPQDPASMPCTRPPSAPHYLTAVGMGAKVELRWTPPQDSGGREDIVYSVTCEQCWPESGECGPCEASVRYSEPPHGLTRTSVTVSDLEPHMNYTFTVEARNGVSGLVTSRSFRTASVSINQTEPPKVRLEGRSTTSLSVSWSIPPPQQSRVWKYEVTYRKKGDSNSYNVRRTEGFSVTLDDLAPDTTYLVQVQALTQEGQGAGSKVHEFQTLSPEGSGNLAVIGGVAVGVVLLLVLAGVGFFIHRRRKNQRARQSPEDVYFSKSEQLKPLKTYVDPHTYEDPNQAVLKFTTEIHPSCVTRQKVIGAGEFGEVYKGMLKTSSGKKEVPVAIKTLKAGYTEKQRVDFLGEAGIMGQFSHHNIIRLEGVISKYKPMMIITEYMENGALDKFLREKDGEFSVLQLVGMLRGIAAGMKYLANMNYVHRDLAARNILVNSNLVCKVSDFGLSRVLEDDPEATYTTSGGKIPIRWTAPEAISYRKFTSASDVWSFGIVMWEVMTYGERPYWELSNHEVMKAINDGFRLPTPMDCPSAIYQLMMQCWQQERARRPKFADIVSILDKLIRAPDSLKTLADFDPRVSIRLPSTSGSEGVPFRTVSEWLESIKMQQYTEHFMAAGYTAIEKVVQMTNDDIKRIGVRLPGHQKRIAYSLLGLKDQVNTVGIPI

B1: SH348-1 (antibody produced by hybridoma SH348-1, FERM BP-10836) (antibody, mouse IgG2a, kappa, V domains shown)
VH: QIQLVQSGPELKKPGETVKISCKASGYTFTHYSMHWVKQAPGKGLKWMGWINTYTGEPTYADDFKGRFAFSLETSASTAFLQINNLKNEDTATYFCATYYRYERDFDYWGQGTTLTVSS
VL: DVLMTQSPLSLPVSLGDQASISCRSSQSIVHSNGNTYLEWYLQKPGQSPKLLIYKVSNRFSGVPDRFSGSGSGTDFTLRISRVEAEDLGVYYCFQGSHVPYTFGGGTKLEIKR
modifications: N-terminal pyroglutamic acid
notes: Mouse monoclonal IgG2a, kappa; The ends of the cDNAs are primer-derived; also called bSH348-1 (biotinylated form)
EPHA2 protein level after 24 hours, EPHA2/β-actin band intensity relative to mIgG2a (100%), with cross-linking antibody [1]: 69%
EPHA2 protein level after 24 hours, EPHA2/β-actin band intensity relative to mIgG2a (100%), without cross-linking antibody [1]: 70%
binding result [2]: no binding (tested: up to 125 µg/ml)

B2: SH357-1 (antibody produced by hybridoma SH357-1, FERM BP-10837) (antibody, mouse IgG2a, kappa, V domains shown)
VH: QIQLVQSGPELKKPGETVKISCKASGYTFIDYSMHWVKQAPGKGLKWMGWINTYTGEPTYSDDFKGRFAFSLETSASTAYLQISNLKNEDTASYFCATYYRYERDFDYWGQGTTLTVSS
VL: DVLMTQTPLSLPVSLGDQASISCRSSQSIVHSSGITYLEWYLQKPGQSPKLLIYKVSNRFSGVPDRFSGSGSGTDFTLKISRVEAEDLGVYYCFQGSHVPYTFGGGTKLEIKR
notes: Mouse monoclonal IgG2a, kappa; also called bSH357-1 (biotinylated form)
binding result [2]: no binding (tested: up to 125 µg/ml)
